Test results as given in PMC3642079.

B1: unnamed (parent)
chain 1: MCDRNGGRRLRQWLIEQIDSSMYPGLIWENEEKSMFRIPWKHAGKQDYNQEVDASIFKAWAVFKGKFKEGDKAEPATWKTRLRCALNKSPDFEEVTDRSQLDISEPYKVYRIVPEEEQKCKLGVATAGCVNEVTEMECGRSEIDELIKEPSVDDYMGMIKRSPSPPEACRSQLLPDWWAQQPSTGVPLVTGYTTYDAHHSAFSQMVISFYYGGKLVGQATTTCPEGCRLSLSQPGLPGTKLYGPEGLELVRFPPADAIPSERQRQVTRKLFGHLERGVLLHSSRQGVFVKRLCQGRVFCSGNAVVCKGRPNKLERDEVVQVFDTSQFFRELQQFYNSQGRLPDGRVVLCFGEEFPDMAPLRSKLILVQIEQLYVRQLAEEAGKSCGAGSVMQAPEEPPPDQVFRMFPDICASHQRSFFRENQQITV
chain 2: LILDSGLDTQHILCFVMAARQRLQDIRRGP
B2: unnamed (parent)
chain 1: MNLEGGGRGGEFGMSAVSCGNGKLRQWLIDQIDSGKYPGLVWENEEKSIFRIPWKHAGKQDYNREEDAALFKAWALFKGKFREGIDKPDPPTWKTRLRCALNKSNDFEELVERSQLDISDPYKVYRIVPEGAKKGAKQLTLEDPQMSMSHPYTMTTPYPSLPAQQVHNYMMPPLDRSWRDYVPDQPHPEIPYQCPMTFGPRGHHWQGPACENGCQVTGTFYACAPPESQAPGVPTEPSIRSAEALAFSDCRLHICLYYREILVKELTTSSPEGCRISHGHTYDASNLDQVLFPYPEDNGQRKNIEKLLSHLERGVVLWMAPDGLYAKRLCQSRIYWDGPLALCNDRPNKLERDQTCKLFDTQQFLSELQAFAHHGRSLPRFQVTLCFGEEFPDPQRQRKLITAHVEPLLARQLYYFAQQNSGHFLRGYDLPEHISNPEDYHRSIRHSSIQE
chain 2: B1 chain 2

Variants of: B1
Test: GST pull-down of S35-radiolabeled in vitro translated protein
Conditions: with partner chain of the complex shown; 5% of IVT input (input lane = 5 RBU); GST control lane = 0.4 RBU; parent: 3.9

chain 2 F15A was tested. Which response did it give?
The response was 0.6 RBU.

Which response does the source give for chain 2 C14A here?
The response was 3.2 RBU.

chain 2 R20G R22G was tested. Which response did it give?
Its response is 0.7 RBU.

Variants of: B2
Test: as above
Conditions: with partner chain of the complex shown; 5% of IVT input (input lane = 5 RBU); GST control lane = 0.5 RBU; parent: 14.1

How did the response turn out when chain 2 R20G R22G was run?
Its response is 4.9 RBU.

chain 2 F15A was tested. Which response did it give?
The response was 0.5 RBU.

With chain 2 C14A as the variant, how does the response read?
The response was 14 RBU.
